Experimental data published in patent US20220064272A1 (TAUC3 BIOLOGICS, published 2022).
Substitutions are numbered along the chain they refer to. Values joined by “and” are separate entries in the source; they are usually repeats but may differ in a detail not shown here. Equal values may be shown once.

B1: Tau01 HMKM HuG4k (antibody, V domains shown)
VH: LVQLVESGGGLVQPGGSLKLSCAASGFTFNTYAMNWVRQASGKGLEWVARIRSKSNNYATYYAASVKGRFTISRDDSKSMAYLQMDSLKTEDTAVYYCVGGGDFWGQGTLVTVSS
VL: DIQMTQSPSSLSASVGDRVTITCRASQEISVYLSWFQQKPGKAIKRLIYGAFSLQSGVPSRFSGSRSGTEYTLTISSLQPEDFATYYCLQYVRYPWTFGGGTKVEIK
notes: human IgG4 kappa (HuG4K)
B2: Tau01 HCKI (antibody, V domains shown)
VH: B1 VH with A49G
VL: B1 VL with S34G, F36Y, I44P, S53K
notes: human IgG4 kappa (HuG4K)
B3: HCKH (antibody, V domains shown)
VH: B1 VH with A49G
VL: B1 VL with S34G, F36Y, I44P, S53K, T69S, Y71F
notes: humanized variant, HC with KH; also called Tau01 HCKH HuG4K
B4: Tau01 HCKG (antibody, V domains shown)
VH: B1 VH with A49G
VL: B1 VL with S34G, F36Y, I44P, S53T, Y71F
notes: human IgG4 kappa (HuG4K)
B5: Tau01 HCKJ (antibody, V domains shown)
VH: B1 VH with A49G
VL: B1 VL with S34G, F36Y, I44P, Y71F
notes: human IgG4 kappa (HuG4K)
B6: HCKD (antibody, V domains shown)
VH: B1 VH with A49G
VL: B1 VL with F36Y, I44P, S53K, Y71F
notes: humanized variant, HC with KD; also called Tau01 HCKD HuG4K
B7: HCKF (antibody, V domains shown)
VH: B1 VH with A49G
VL: B1 VL with S34G, F36Y, S53K, Y71F
notes: humanized variant, HC with KF; also called Tau01 HCKF HuG4K
B8: Tau01 HCKE (antibody, V domains shown)
VH: B1 VH with A49G
VL: B1 VL with S34G, I44P, S53K, Y71F
notes: human IgG4 kappa (HuG4K)
B9: Tau01 HBKE (antibody, V domains shown)
VH: B1 VH with L1E, L4V, A64D, A81V
VL: B1 VL with S34G, I44P, S53K, Y71F
notes: human IgG4 kappa (HuG4K)
B10: Tau01 HBKI (antibody, V domains shown)
VH: B1 VH with L1E, L4V, A64D, A81V
VL: B1 VL with S34G, F36Y, I44P, S53K
notes: human IgG4 kappa (HuG4K)
B11: HBKH (antibody, V domains shown)
VH: B1 VH with L1E, L4V, A64D, A81V
VL: B1 VL with S34G, F36Y, I44P, S53K, T69S, Y71F
notes: humanized variant, HB with KH; also called Tau01 HBKH HuG4K
B12: HBKD (antibody, V domains shown)
VH: B1 VH with L1E, L4V, A64D, A81V
VL: B1 VL with F36Y, I44P, S53K, Y71F
notes: humanized variant, HB with KD; also called Tau01 HBKD HuG4K
B13: Tau01 HBKG (antibody, V domains shown)
VH: B1 VH with L1E, L4V, A64D, A81V
VL: B1 VL with S34G, F36Y, I44P, S53T, Y71F
notes: human IgG4 kappa (HuG4K)
B14: Tau01 HBKJ (antibody, V domains shown)
VH: B1 VH with L1E, L4V, A64D, A81V
VL: B1 VL with S34G, F36Y, I44P, Y71F
notes: human IgG4 kappa (HuG4K)
B15: HBKF (antibody, V domains shown)
VH: B1 VH with L1E, L4V, A64D, A81V
VL: B1 VL with S34G, F36Y, S53K, Y71F
notes: humanized variant, HB with KF; also called Tau01 HBKF HuG4K
B16: Tau01 HMKG (antibody, V domains shown)
VH: B1 VH
VL: B1 VL with S34G, F36Y, I44P, S53T, Y71F
notes: human IgG4 kappa (HuG4K)
B17: Tau01 HMKI (antibody, V domains shown)
VH: B1 VH
VL: B1 VL with S34G, F36Y, I44P, S53K
notes: human IgG4 kappa (HuG4K)
B18: Tau01 HMKC (antibody, V domains shown)
VH: B1 VH
VL: B1 VL with I44P, S53K
notes: human IgG4 kappa (HuG4K)
B19: Tau01 HMKB (antibody, V domains shown)
VH: B1 VH
VL: B1 VL with S53T, T69S
notes: human IgG4 kappa (HuG4K)
B20: Tau01 HMKJ (antibody, V domains shown)
VH: B1 VH
VL: B1 VL with S34G, F36Y, I44P, Y71F
notes: human IgG4 kappa (HuG4K)
B21: Tau01 HMKA (antibody, V domains shown)
VH: B1 VH
VL: B1 VL with S34G, F36Y, I44P, S53K, Y71F
notes: human IgG4 kappa (HuG4K)
B22: Tau01 HCKN (antibody, V domains shown)
VH: B1 VH with A49G
VL: B1 VL with S34G, F36Y, I44P, S53T
notes: human IgG4 kappa (HuG4K)
B23: Tau01 HCKO (antibody, V domains shown)
VH: B1 VH with A49G
VL: B1 VL with S34G, F36Y, I44P
notes: human IgG4 kappa (HuG4K)
B24: Tau01 HCKL (antibody, V domains shown)
VH: B1 VH with A49G
VL: B1 VL with S53K
notes: human IgG4 kappa (HuG4K)
B25: Tau01 HCKP (antibody, V domains shown)
VH: B1 VH with A49G
VL: B1 VL with S34G, I44P, S53K
notes: human IgG4 kappa (HuG4K)
B26: Tau01 HMKL (antibody, V domains shown)
VH: B1 VH
VL: B1 VL with S53K
notes: human IgG4 kappa (HuG4K)
B27: Tau01 HNKA (antibody, V domains shown)
VH: B1 VH with L4V, A49G
VL: B1 VL with S34G, F36Y, I44P, S53K, Y71F
notes: human IgG4 kappa (HuG4K)
B28: Tau01 HNKI (antibody, V domains shown)
VH: B1 VH with L4V, A49G
VL: B1 VL with S34G, F36Y, I44P, S53K
notes: human IgG4 kappa (HuG4K)
B29: Tau01 HNKG (antibody, V domains shown)
VH: B1 VH with L4V, A49G
VL: B1 VL with S34G, F36Y, I44P, S53T, Y71F
notes: human IgG4 kappa (HuG4K)
B30: Tau01 HNKB (antibody, V domains shown)
VH: B1 VH with L4V, A49G
VL: B1 VL with S53T, T69S
notes: human IgG4 kappa (HuG4K)
B31: Tau01 HNKJ (antibody, V domains shown)
VH: B1 VH with L4V, A49G
VL: B1 VL with S34G, F36Y, I44P, Y71F
notes: human IgG4 kappa (HuG4K)

target: T1, TauC3 (C-terminally truncated tau fragment ending at aspartate 421 of htau40) (human, UniProt P10636 1-738); assay: Biacore kinetics, TauC3 amine-coupled on CM5, antibody series, 1:1 global fit
T1 construct: Generated and purified by Genscript; also called Human TauC3; recombinant TauC3 protein
Source text: To determine the affinity of the binding interactions, a biacore kinetic assay was developed which involved immobilizing TauC3 on a CM5 chip via amine coupling and injecting a concentration series of the respective antibody over it.

T1 sequence (P10636 other isoform, or with tags, fused parts or gaps): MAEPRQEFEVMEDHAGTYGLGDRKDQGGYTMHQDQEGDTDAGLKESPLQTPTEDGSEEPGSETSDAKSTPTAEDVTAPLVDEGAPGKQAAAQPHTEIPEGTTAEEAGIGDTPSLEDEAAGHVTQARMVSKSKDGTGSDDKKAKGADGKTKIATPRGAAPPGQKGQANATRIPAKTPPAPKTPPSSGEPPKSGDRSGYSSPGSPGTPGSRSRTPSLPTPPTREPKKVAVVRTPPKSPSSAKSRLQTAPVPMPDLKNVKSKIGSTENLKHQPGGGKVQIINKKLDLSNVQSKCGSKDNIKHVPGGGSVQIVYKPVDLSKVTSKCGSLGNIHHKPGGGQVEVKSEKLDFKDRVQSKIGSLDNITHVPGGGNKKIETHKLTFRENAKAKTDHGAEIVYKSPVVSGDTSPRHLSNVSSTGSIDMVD

Work on B1 yielded a koff of 0.0181 s⁻¹.

target: T1, TauC3 (C-terminally truncated tau …); assay: SPR (Biacore) kinetics, TauC3 amine-coupled on CM5, 1:1 global fit
Procedure, shortened: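 Surface plasmon resonance (Biacore) was used with purified TauC3 immobilised on a CM5 chip by amine coupling. A concentration series of each purified antibody was injected over the chip. Association rate, dissociation rate and Kd were obtained by a 1:1 global fit.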

B1 showed a Kd of 110 pM.

B1 was tested, and the koff was 0.0181 s⁻¹.

B1 gave a kon of 1.65e+08 M⁻¹ s⁻¹.

target: T1, TauC3 (C-terminally truncated tau …); assay: binding ELISA on coated TauC3, OD650
Procedure, shortened: (§1)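 Binding ELISA on coated TauC3 antigen, which was made and purified by Genscript. Chimeric or humanized IgG4κ antibodies were expressed in ExpiCHO cells. Binding was read as absorbance at 650 nm. EC50 was derived from the antibody concentration-response.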

B2 and B3 are within 1.5-fold of each other in EC50: 741 pM for the first, 1030 pM for the second.

B4 and B5 are within 1.5-fold of each other in EC50: 980 pM for the first, 1010 pM for the second.

B6 and B7 are within 1.5-fold of each other in EC50: 2020 pM for the first, 2250 pM for the second.

B8 gave an EC50 of 1240 pM.

target: T1, TauC3 (C-terminally truncated tau …); assay: binding ELISA on coated TauC3, OD650; remark: another data set of the same source
Procedure, shortened: as §1

B9 and B10 are within 1.5-fold of each other in EC50: 915 pM for the first, 705 pM for the second.

First: B11
Second: B12
The EC50 of the first is 3.8-fold lower: 807 pM for the first, 3040 pM for the second.

B13 and B14 are within 1.5-fold of each other in EC50: 761 pM for the first, 811 pM for the second.

Binder B15 has an EC50 of 786 pM.

target: T1, TauC3 (C-terminally truncated tau …); assay: Biacore off-rate ranking, TauC3 amine-coupled on CM5, one antibody concentration; two-phase decay fit, slow phase; parameters: unit not given here
Description: (§2) To further evaluate the binding data observed on the Octet, an off-rate ranking experiment was performed on the Biacore 200 instrument. Biacore offers greater selectivity than the Octet and facilitated the immobilization of TauC3 onto a CM5 chip via amine coupling which stabilizes the antigen. This produces higher quality data with stable baselines and good reproducible responses. Once TauC3 is immobilized, one concentration (5 nM) of antibody is added, followed by a dissociation and regeneration step (Section 8.20). The off-rates were fitted using a two-phase decay model (FIG. 25B) or a one phase decay fitting only the second off-rate (FIG. 25A). The candidates were then ranked based on the off-rates obtained using the fits and compared. The data agreed with the Octet results (albeit with a different ranking order), highlighting Tau01 HMKM, HMKO, HMKP, HMKN and HMKE as the humanized variants with the slowest off-rates. The lack of binding of FL Tau to chimeric and a humanized candidate was also confirmed by Biacore by loading the antibody onto a Protein G chip and adding 250 nM FL Tau.

Compared with B16, B17 is higher in Kslow: 0.000384 for the first, 0.00179 for the second.

First: B18
Second: B1
The Kslow of the first is higher: 0.000711 for the first, 0.000553 for the second.

Going from B19 to B20, the Kslow rises from 0.000138 to 0.00123.

Binder B21 has a Kslow of 0.000815.

target: T1, TauC3 (C-terminally truncated tau …); assay: binding ELISA on coated TauC3, OD650; left table (HC variants)
Procedure, shortened: as §1

B2 and B22 are within 1.5-fold of each other in EC50: 655 pM for the first, 574 pM for the second.

B4 and B5 are within 1.5-fold of each other in EC50: 573 pM for the first, 766 pM for the second.

Going from B23 to B8, the EC50 rises from 537 pM to 941 pM (1.8-fold).

B24 and B25 are within 1.5-fold of each other in EC50: 834 pM for the first, 821 pM for the second.

target: T1, TauC3 (C-terminally truncated tau …); assay: binding ELISA on coated TauC3, OD650; remark: another data set of the same source
Procedure, shortened: as §1

B16 and B17 are within 1.5-fold of each other in EC50: 543 pM for the first, 549 pM for the second.

B19 and B20 are within 1.5-fold of each other in EC50: 412 pM for the first, 522 pM for the second.

Work on B21 yielded an EC50 of 556 pM.

target: T1, TauC3 (C-terminally truncated tau …); assay: Biacore off-rate ranking, TauC3 amine-coupled on CM5, one antibody concentration; one-phase exponential decay fit
Description: as §2

Compared with B16, B17 is 4-fold higher in koff: 0.000453 s⁻¹ for the first, 0.00181 s⁻¹ for the second.

Going from B18 to B1, the koff falls from 0.000843 s⁻¹ to 0.000264 s⁻¹ (3.2-fold).

First: B19
Second: B20
The koff of the first is 2.2-fold lower: 0.00062 s⁻¹ for the first, 0.00136 s⁻¹ for the second.

Work on B21 yielded a koff of 0.000882 s⁻¹.

target: T1, TauC3 (C-terminally truncated tau …); assay: binding ELISA on coated TauC3, OD650; right table (HM variants)
Procedure, shortened: as §1

With B16 the EC50 was 515 pM and 607 pM.
For B17, the EC50 was 474 pM and 458 pM.
For B18, the EC50 was 433 pM and 718 pM.
With B21 the EC50 was 642 pM and 462 pM.

B4 and B26 are within 1.5-fold of each other in EC50: 573 pM for the first, 470 pM for the second.

Binder B20 has an EC50 of 433 pM.

target: T1, TauC3 (C-terminally truncated tau …); assay: binding ELISA on coated TauC3, OD650; remark: another data set of the same source
Procedure, shortened: as §1

B27 and B28 are within 1.5-fold of each other in EC50: 1090 pM for the first, 765 pM for the second.

Going from B29 to B30, the EC50 falls from 1080 pM to 590 pM (1.8-fold).

B31 gave an EC50 of 2560 pM.
